T1: rh-IL-8 72 aa form, monocyte derived (human, UniProt P10145 28-99)
T1 construct: mature; also called IL-8M; IL-8Mpepretech
T1 sequence (looked up): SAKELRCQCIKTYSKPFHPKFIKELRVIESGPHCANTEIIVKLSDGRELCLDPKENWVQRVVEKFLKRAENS

T2: recombinant human IL-8 (form not stated for this assay) (human, UniProt P10145 28-99, limits assumed)
T2 construct: also called rhIL-8
T2 sequence (looked up): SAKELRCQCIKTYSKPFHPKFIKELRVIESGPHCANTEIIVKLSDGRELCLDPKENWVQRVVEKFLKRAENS

T3: recombinant human (rh) GRO-α (human, UniProt P09341 35-107)
T3 sequence (looked up): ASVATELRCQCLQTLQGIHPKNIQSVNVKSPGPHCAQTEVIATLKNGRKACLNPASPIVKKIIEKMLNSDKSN

T4: rh-GRO-β (human, UniProt P19875 35-107)
T4 sequence (looked up): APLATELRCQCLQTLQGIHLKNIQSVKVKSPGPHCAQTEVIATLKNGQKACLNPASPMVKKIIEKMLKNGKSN

T5: rh-IP-10 (human, UniProt P02778 22-98)
T5 sequence (looked up): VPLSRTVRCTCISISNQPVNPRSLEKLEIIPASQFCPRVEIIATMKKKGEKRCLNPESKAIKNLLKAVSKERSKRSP


What was measured:
[1] = target: recombinant human IL-8 (form not stated for this assay) (human) (UniProt P10145); assay: competition: varying murine anti-IL-8 antibody against 0.25 nM [125I]-rhIL-8 binding to IL-8 receptors (CXCR1, CXCR2) on human neutrophils, filter plate, gamma counting; x axis printed 'IL-8 (nM)'
[2] = target: T1, rh-IL-8 72 aa form, monocyte derived; assay: cell-based or functional assay
[3] = target: T2, recombinant human IL-8 (form not stated …); assay: SPR, BIAcore 3000, IL-8 amine-coupled on CM-5 chip, 25° C.
Method: (§1) Affinity constants for 10F8 Fab were determined and compared with corresponding values of 10F8 IgG1,κ. Whole IgG molecules lead to rebinding effects during the dissociation phase of experimental procedures to determine the affinity constants, thus leading to an apparently lower dissociation rate constant and in turn, much higher affinity constant. To eliminate these artifactual avidity effects, Fab molecules were used in the place of IgG1,κ to determine the affinity and rate constants. A CM-5 chip was used to immobilize IL-8 via amine coupling.

[4] = target: T2, recombinant human IL-8 (form not stated …); assay: SPR, BIAcore 3000, IL-8 amine-coupled on CM-5 chip, 37° C.
Method: as §1

[5] = target: T2, recombinant human IL-8 (form not stated …); assay: SPR, BIAcore 3000, IL-8 amine-coupled on CM-5 chip, 25° C.; half-life of the complex
Method: as §1

[6] = target: T2, recombinant human IL-8 (form not stated …); assay: SPR, BIAcore 3000, IL-8 amine-coupled on CM-5 chip, 37° C.; half-life of the complex
Method: as §1

[7] = target: T2, recombinant human IL-8 (form not stated …); assay: inhibition of 0.25 nM [125I]-IL-8 binding to human neutrophils (CXCR1 and CXCR2), filter plate assay
Method: (§2) Neutrophils were enriched from heparinized whole blood from normal volunteers. The blood was layered on Ficoll-hypaque and centrifuged at 1500 rpm for 30 minutes. The mononuclear cell layer was removed, and erythrocytes were hypotonically lysed. The resulting neutrophils were resuspended in PBS containing 0.1% BSA and 0.02% Na azide (0.1% PBA) and held on ice. The IL-8 binding assay was performed as previously described (Yang et al, (1999) J. Leukoc. Biol. 66:401-410). Briefly, in a final volume of 150 μl, 4×10⁵ neutrophils were incubated from 1.5-3 hours on ice with 0.25 nM [¹²⁵I] recombinant human IL-8 (Amersham Life Sciences, Piscataway, N.J.) along with varying concentrations of 10F8 (hybridoma-derived), 10F8 (transfectoma-derived), mouse anti-human IL-8 mAb 6712.111 R & D Systems, and control antibody. All incubations were performed in 96 well Multiscreen filter plates (Millipore, Bedford, Mass.). Plates were washed extensively with cold 0.1% PBA, and filters were counted on a Wallac gamma counter. Results are shown in FIGS. 7A and 7B, expressed as means of triplicate or quadruplicates. The inhibition of binding is expressed as percentage of control antibody.
In the experiment shown in FIG. 7B, the IC₅₀s of 10F8 (hybridoma-derived) (10F8 H) and 10F8 (transfectoma-derived) (10F8 T) were 0.19 nM and 0.30 nM, respectively.

[8] = target: T3, recombinant human (rh) GRO-α; assay: ELISA, plate coated with 1 µg/mL rh-GRO-α, HuMab 10F8 titrated 1:3 from 20 µg/mL, HRP anti-human IgG, A405
Method: (§3) Possible cross-reactivity of HuMab 10F8 clone towards other chemokines was evaluated by ELISA. Briefly, microtiter ELISA plates (Greiner, Germany) were coated overnight at room temperature (RT) with 1 μg/mL of recombinant human (rh) GRO-α, rh-GRO-β, rh-IP-10, rh-IL-8 72 aa form, which is monocyte derived (IL-8M or IL-8Mpepretech) or rh-IL-8 77 aa form (IL-8E), which is endothelial cell derived, 100 μl per well. Plates were washed twice with PBST (phosphate buffered saline supplemented with 0.05% v/v Tween-20 (Fischer Scientific, USA)) and wells were blocked with 100 […] PBSTC (PBST plus 2% v/v chicken serum) for 1 hour, RT. Thereafter, wells were incubated for 1 hour, RT under shaking conditions with HuMab-IL-8 clone 10F8, 20 μg/mL 1:3 diluted in PBSTC. Subsequently, wells were washed thrice with PBST and incubated with either HRP-conjugated rabbit anti-mouse IgG F(ab′)₂ fragments (Jackson; diluted 1:3000 in PBSTC) or HRP-conjugated rabbit anti-human IgG F(ab′)₂ (DAKO, Denmark; diluted 1:2000 in PBSTC) for the detection of mouse or human antibodies, respectively.

rh-GRO-β = target: T4, rh-GRO-β; assay: ELISA, plate coated with 1 µg/mL rh-GRO-β, HuMab 10F8 titrated 1:3 from 20 µg/mL, HRP anti-human IgG, A405
Method: as §3

rh-IP-10 = target: T5, rh-IP-10; assay: ELISA, plate coated with 1 µg/mL rh-IP-10, HuMab 10F8 titrated 1:3 from 20 µg/mL, HRP anti-human IgG, A405
Method: as §3

[9] = target: T1, rh-IL-8 72 aa form, monocyte derived; assay: ELISA, plate coated with 1 µg/mL rh-IL-8 72 aa form (curve IL-8M), HuMab 10F8 titrated 1:3 from 20 µg/mL, HRP anti-human IgG, A405
Method: as §3

[10] = target: T1, rh-IL-8 72 aa form, monocyte derived; assay: ELISA, plate coated with 1 µg/mL rh-IL-8 72 aa form (curve IL-8Mpeprotec), HuMab 10F8 titrated 1:3 from 20 µg/mL, HRP anti-human IgG, A405
Method: as §3

[11] = target: T2, recombinant human IL-8 (form not stated …); assay: competition: varying 10F8 against 0.25 nM [125I]-rhIL-8 binding to IL-8 receptors (CXCR1, CXCR2) on human neutrophils, filter plate, gamma counting; x axis printed 'IL-8 (nM)'
Method: The ability of HuMab 10F8 to inhibit radiolabeled IL-8 binding to IL-8 receptors (CXCR1 and CXCR2) on neutrophils was assessed as follows:
as §2

Molecule | Kd [3] [nM] | koff [3] [s⁻¹] | kon [3] [M⁻¹ s⁻¹] | Kd [4] [nM] | koff [4] [s⁻¹] | kon [4] [M⁻¹ s⁻¹] | Half-life (1n (2/k_off hrs)) [5] [h] | Half-life (1n (2/k_off hrs)) [6] [h] | IC50 [7] [nM] | also measured
mouse anti-human IL-8 mAb 6712.111 (R & D Systems) (antibody) |  |  |  |  |  |  |  |  |  | IC50 (read off the curve) [1]: 0.5 nM
irrelevant human isotype control antibody (Example 8) |  |  |  |  |  |  |  |  |  | expression level of CD11b on IL-8 stimulated PMN (MFI) [2]: 2400 MFI; expression of CD62L on IL-8 stimulated PMN (MFI) [2]: 150 MFI
HuMab 10F8 (hybridoma-derived), human monoclonal IgG1,κ antibody (antibody, V domains shown, Purified from hybridoma culture supernatant by Protein A; also called HuMab-IL-8 clone 10F8; HuMab-IL-8 (10F8)) VH: QVQLVESGGGVVQPGRSLRLSCTASGFTFSHYGMYWVRQAPGKGLEWVAVIWYDGSYEYNEDSVKGRFTISRDNSKNTLYLQMNSLRAEDTAVYYCARDRVGLFDYWGQGTLVTVSS VL: EIVLTQSPGTLSLSPGERATLSCRASQSISSSYLAWYQQKPGQAPRLLIYGPSSRATGIPDRFSGSGSGTDFTLTISRLEPEDFAVYYCQQYAGSLTFGPGTKVDIK | 0.01 | 2.1e-06 | 231000 | 0.02 | 5.4e-06 | 275000 | 90.4 | 38.2 | 0.19 | binding result [8]: no binding (tested: 20 µg/ml); binding result (rh-GRO-β): no binding (tested: 20 µg/ml); binding result (rh-IP-10): no binding (tested: 20 µg/ml); EC50 (read off the curve) [9]: ~0.4 µg/mL; EC50 (read off the curve) [10]: ~0.2 µg/mL; IC50 (read off the curve) [11]: ~0.2 nM
10F8 Fab (Fab fragment prepared from HuMab 10F8 IgG) (Fab, V domains shown) VH: QVQLVESGGGVVQPGRSLRLSCTASGFTFSHYGMYWVRQAPGKGLEWVAVIWYDGSYEYNEDSVKGRFTISRDNSKNTLYLQMNSLRAEDTAVYYCARDRVGLFDYWGQGTLVTVSS VL: EIVLTQSPGTLSLSPGERATLSCRASQSISSSYLAWYQQKPGQAPRLLIYGPSSRATGIPDRFSGSGSGTDFTLTISRLEPEDFAVYYCQQYAGSLTFGPGTKVDIK | 0.194 | 1.96e-05 | 101000 | 0.372 | 3.94e-05 | 106000 | 8.3 | 4.9 |  | 
HuMab 10F8 (transfectoma-derived), recombinant 10F8 produced from CHO cells (antibody, V domains shown) VH: QVQLVESGGGVVQPGRSLRLSCTASGFTFSHYGMYWVRQAPGKGLEWVAVIWYDGSYEYNEDSVKGRFTISRDNSKNTLYLQMNSLRAEDTAVYYCARDRVGLFDYWGQGTLVTVSS VL: EIVLTQSPGTLSLSPGERATLSCRASQSISSSYLAWYQQKPGQAPRLLIYGPSSRATGIPDRFSGSGSGTDFTLTISRLEPEDFAVYYCQQYAGSLTFGPGTKVDIK |  |  |  |  |  |  |  |  | 0.3 | 
